# T1: DMP1α (DMTF1 isoform α) (human, UniProt Q9Y222 1-760)
# T1 sequence: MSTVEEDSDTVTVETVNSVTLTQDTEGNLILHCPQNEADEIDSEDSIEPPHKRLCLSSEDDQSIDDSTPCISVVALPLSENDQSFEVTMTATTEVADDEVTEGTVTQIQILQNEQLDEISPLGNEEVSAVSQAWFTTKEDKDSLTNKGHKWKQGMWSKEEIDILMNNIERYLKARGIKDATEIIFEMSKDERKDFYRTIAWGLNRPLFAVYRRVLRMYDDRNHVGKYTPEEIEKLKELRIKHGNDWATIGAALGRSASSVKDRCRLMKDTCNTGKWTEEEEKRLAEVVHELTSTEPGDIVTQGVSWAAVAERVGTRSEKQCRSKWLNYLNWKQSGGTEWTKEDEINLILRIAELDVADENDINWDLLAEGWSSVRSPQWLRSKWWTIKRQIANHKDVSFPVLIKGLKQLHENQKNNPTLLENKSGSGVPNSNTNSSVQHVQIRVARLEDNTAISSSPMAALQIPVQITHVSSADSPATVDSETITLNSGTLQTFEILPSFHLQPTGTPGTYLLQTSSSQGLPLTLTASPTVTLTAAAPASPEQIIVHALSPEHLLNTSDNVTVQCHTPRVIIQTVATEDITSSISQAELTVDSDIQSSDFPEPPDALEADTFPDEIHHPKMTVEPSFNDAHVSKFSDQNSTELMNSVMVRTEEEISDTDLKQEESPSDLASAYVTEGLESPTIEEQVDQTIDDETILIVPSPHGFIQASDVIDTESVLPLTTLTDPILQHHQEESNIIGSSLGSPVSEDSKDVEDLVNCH
# T2: DMP1γ (DMTF1 isoform γ) (human, UniProt Q9Y222-3 1-285)
# T2 sequence: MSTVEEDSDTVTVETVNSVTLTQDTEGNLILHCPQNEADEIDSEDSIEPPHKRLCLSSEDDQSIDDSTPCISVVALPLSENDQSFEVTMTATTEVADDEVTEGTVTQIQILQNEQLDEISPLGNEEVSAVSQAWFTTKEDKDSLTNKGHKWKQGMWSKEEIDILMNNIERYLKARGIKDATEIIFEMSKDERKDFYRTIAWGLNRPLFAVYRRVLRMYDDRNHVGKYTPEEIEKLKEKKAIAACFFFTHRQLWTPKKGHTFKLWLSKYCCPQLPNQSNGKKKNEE
# T3: DMP1β (DMTF1 isoform β) (human, UniProt Q9Y222-2 1-272)
# T3 sequence: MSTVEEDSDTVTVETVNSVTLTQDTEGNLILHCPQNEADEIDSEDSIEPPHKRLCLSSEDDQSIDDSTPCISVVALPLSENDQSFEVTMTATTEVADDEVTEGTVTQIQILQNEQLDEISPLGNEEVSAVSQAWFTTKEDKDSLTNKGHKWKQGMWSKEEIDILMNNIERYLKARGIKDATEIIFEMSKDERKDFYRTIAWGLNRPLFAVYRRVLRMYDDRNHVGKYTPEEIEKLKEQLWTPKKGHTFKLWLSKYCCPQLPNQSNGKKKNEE
# T4: DMP1 ΔMHR (human, UniProt Q9Y222 1-223)
# T4 sequence: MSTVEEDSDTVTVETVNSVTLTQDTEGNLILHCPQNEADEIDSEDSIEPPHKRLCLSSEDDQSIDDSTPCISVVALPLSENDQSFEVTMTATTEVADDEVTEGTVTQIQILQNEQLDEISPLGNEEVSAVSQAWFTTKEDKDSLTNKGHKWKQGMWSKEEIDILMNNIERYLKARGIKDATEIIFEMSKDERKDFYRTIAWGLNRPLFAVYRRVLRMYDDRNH
# B1: human ARF promoter DMP1 site probe (dsDNA)
# DNA 1: GTCAGGTGACGGATGTAGCTAGG
# DNA 2: CCTAGCTACATCCGTCACCTGAC
# Key:
# Assay in all cases: EMSA
# DMP1α (DMTF1 isoform α) = target: T1, DMP1α (DMTF1 isoform α)
# DMP1γ (DMTF1 isoform γ) = target: T2, DMP1γ (DMTF1 isoform γ)
# DMP1β (DMTF1 isoform β) = target: T3, DMP1β (DMTF1 isoform β)
# DMP1 ΔMHR = target: T4, DMP1 ΔMHR
binder,measurement,setting,value
B1,binding result,DMP1α (DMTF1 isoform α),binds
same,binding result,DMP1γ (DMTF1 isoform γ),no binding
same,binding result,DMP1β (DMTF1 isoform β),no binding
same,binding result,DMP1 ΔMHR,no binding

# Source: publication PMC4687731
